Paper doi:10.64898/2025.12.12.693935, “Tetraspanin CD82 reduces the formation of CADM1 oligomers” (bioRxiv, 2025)

Legend:
[1] = target: the molecule itself; assay: SEC; F-SEC on tryptophan fluorescence, Superose 6 increase 10/300, purified protein injected at 0.15 to 80 µM; 150 mM NaCl, 25 mM HEPES pH 7.5, 0.025% DDM
[2] = target: the molecule itself; assay: SEC-MALS; SEC-MALLS, Superdex 200 increase 10/300 GL, 200 mM NaCl, 25 mM HEPES 7.5, 0.4 mL/min; CADM1(ECD)-His6 at 160, 80, 40 and 20 µM; monomer to dimer
[3] = target: the molecule itself; assay: SEC; F-SEC on the eGFP signal, Superdex 200 increase 10/300 GL, strep-tactin-purified samples of individually expressed or co-expressed proteins; 150 mM NaCl, 25 mM HEPES pH 7.5, 0.025% DDM

B1: CADM1-StrepII3 (natural protein, human, UniProt Q9BY67 45-442, looked up)
chain: QNLFTKDVTVIEGEVATISCQVNKSDDSVIQLLNPNRQTIYFRDFRPLKDSRFQLLNFSSSELKVSLTNVSISDEGRYFCQLYTDPPQESYTTITVLVPPRNLMIDIQKDTAVEGEEIEVNCTAMASKPATTIRWFKGNTELKGKSEVEEWSDMYTVTSQLMLKVHKEDDGVPVICQVEHPAVTGNLQTQRYLEVQYKPQVHIQMTYPLQGLTREGDALELTCEAIGKPQPVMVTWVRVDDEMPQHAVLSGPNLFINNLNKTDNGTYRCEASNIVGKAHSDYMLYVYDPPTTIPPPTTTTTTTTTTTTTILTIITDSRAGEEGSIRAVDHAVIGGVVAVVVFAMLCLLIILGRYFARHKGTYFTHEAKGADDAADADTAIINAEGGQNNSEEKKEYFI
notes: CADM1 excluding the signal peptide, human, UniProtKB Q9BY67.2; called full-length in the results; expressed behind the vector's N-terminal signal peptide; also called full-length CADM1-StrepII3; source: HEK293-E+ cells, transiently transfected, solubilized in DDM, purified (strep-tactin, SEC); not shown: StrepII3, C-terminal, kept
binding result [1]: binds

B2: CADM1(ECD)-His6 (domain or fragment, human, UniProt Q9BY67 45-374, looked up)
chain: QNLFTKDVTVIEGEVATISCQVNKSDDSVIQLLNPNRQTIYFRDFRPLKDSRFQLLNFSSSELKVSLTNVSISDEGRYFCQLYTDPPQESYTTITVLVPPRNLMIDIQKDTAVEGEEIEVNCTAMASKPATTIRWFKGNTELKGKSEVEEWSDMYTVTSQLMLKVHKEDDGVPVICQVEHPAVTGNLQTQRYLEVQYKPQVHIQMTYPLQGLTREGDALELTCEAIGKPQPVMVTWVRVDDEMPQHAVLSGPNLFINNLNKTDNGTYRCEASNIVGKAHSDYMLYVYDPPTTIPPPTTTTTTTTTTTTTILTIITDSRAGEEGSIRAVDH
notes: ectodomain of CADM1, human, UniProtKB Q9BY67.2, without the natural signal peptide; also called His-tagged CADM1 ectodomain; soluble CADM1(ECD)-His6; source: HEK293-E+ cells, secreted into the supernatant, purified (Ni Sepharose excel, SEC); not shown: His6, C-terminal, kept
stoichiometry N [2]: 2

B3: CADM1-eGFP-StrepII3 (natural protein, human, UniProt Q9BY67 45-442, looked up)
chain: B1 chain
notes: CADM1 excluding the signal peptide, human, UniProtKB Q9BY67.2; expressed behind the vector's N-terminal signal peptide; source: HEK293-E+ cells, transiently transfected, solubilized in DDM, purified (strep-tactin); not shown: eGFP, C-terminal, kept; StrepII3, C-terminal, kept
binding result [3]: binds
